Measured values from patent US9969780.

How the values were obtained:
[1] = biological target: HIV-1 Tat protein (recombinant, native, biologically active) (HIV-1) (UniProt Q73370); experiment: ELISA; plate coated with Tat, antibody used for detection
oxidised Tat (HIV-1) = oxidised Tat (HIV-1) (UniProt Q73370); experiment: ELISA; wells coated with oxidised Tat, antibody used for detection
[2] = biological target: Tat-cys22 (transactivation mutant, cysteine 22 substituted by glycine) (HIV-1); experiment: ELISA; wells coated with Tat-cys22, antibody used for detection
[3] = biological target: Tat (83-102) peptide (C-terminal domain) (HIV-1); experiment: ELISA; plate coated with Tat peptide, antibody used for detection
[4] = biological target: Tat (65-80) peptide (RGD sequence) (HIV-1); experiment: as above
[5] = biological target: Tat (73-86) peptide (HIV-1); experiment: as above
[6] = biological target: Tat (1-20) peptide (N-terminal domain) (HIV-1); experiment: as above
[7] = biological target: Tat (56-70) peptide (glutamine-rich region) (HIV-1); experiment: as above
[8] = biological target: Tat (21-58) peptide (cysteine, core, and basic regions) (HIV-1); experiment: as above
[9] = biological target: Tat (36-50) peptide (core region) (HIV-1); experiment: as above
[10] = biological target: Tat (46-60) peptide (basic region-nuclear localisation signal) (HIV-1); experiment: as above
[11] = biological target: Tat (21-40) peptide (cysteine-rich region-transactivation domain) (HIV-1); experiment: as above
[12] = biological target: HIV-1 Tat protein (recombinant, native, biologically active) (HIV-1) (UniProt Q73370); experiment: ELISA; wells coated with native Tat, antibody used for detection
[13] = biological target: bovine serum albumin (bovine) (UniProt P02769); experiment: ELISA; uncoated (BSA-blocked) well incubated with Tat, detected with anti-Tat
Sequence of bovine serum albumin (bovine) (P02769 25-607 limits assumed): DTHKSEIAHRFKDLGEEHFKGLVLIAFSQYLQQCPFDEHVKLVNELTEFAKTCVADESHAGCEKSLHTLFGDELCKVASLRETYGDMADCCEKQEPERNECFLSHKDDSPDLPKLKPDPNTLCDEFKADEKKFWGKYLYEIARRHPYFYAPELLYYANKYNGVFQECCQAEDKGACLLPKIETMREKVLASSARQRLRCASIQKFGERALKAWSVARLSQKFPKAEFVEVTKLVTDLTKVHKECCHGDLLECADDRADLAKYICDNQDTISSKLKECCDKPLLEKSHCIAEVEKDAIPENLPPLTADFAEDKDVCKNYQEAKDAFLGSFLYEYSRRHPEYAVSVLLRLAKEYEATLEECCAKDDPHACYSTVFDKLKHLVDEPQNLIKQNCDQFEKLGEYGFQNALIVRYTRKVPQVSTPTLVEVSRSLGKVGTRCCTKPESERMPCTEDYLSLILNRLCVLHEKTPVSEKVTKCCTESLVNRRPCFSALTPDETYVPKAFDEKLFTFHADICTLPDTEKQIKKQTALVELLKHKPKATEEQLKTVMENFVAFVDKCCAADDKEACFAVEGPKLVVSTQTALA

Row | Substance | ELISA signal [1] | ELISA signal (oxidised Tat (HIV-1)) | ELISA signal [2] | ELISA signal [3] | ELISA signal [4] | ELISA signal [5] | ELISA signal [6] | ELISA signal [7] | ELISA signal [8] | ELISA signal [9] | ELISA signal [10] | ELISA signal [11] | ELISA signal [12] | ELISA OD [13] [OD]
1 | CTR isot. (isotype control antibody) | 0.081 | 0.016 | 0.026 | 0 | 0 | 0.019 | 0.006 | 0 | 0.108 | 0 | 0.063 | 0.082 | 0.051 | 
2 | HIV-1 Tat protein (recombinant, native, biologically active) (from UniProt Q73370 1-100) |  |  |  |  |  |  |  |  |  |  |  |  |  | 0.431
3 | monoclonal anti-CCR5 antibody (Pharmingen), directed against the CCR5 second extracellular loop | 1.45 | 0.128 | 0.75 | 0 | 0 | 0 | 0 | 0.147 | 3 | 0 | 0.466 | 0 | 1.24 | 
